For seven molecules, MFI results are on record in patent publication US20220073608A1 (JIANGSU HUAIYU PHARMACEUTICAL, published 2022).

For assay [1], the target named is T1, human SEMA4D, full length, on CHO-K1 cells (CHO-K1 hSEMA4D) (human, UniProt Q92854 22-862).
T1 construct: whole, on cells; also called human SEMA4D recombinant cells
T1 sequence (looked up): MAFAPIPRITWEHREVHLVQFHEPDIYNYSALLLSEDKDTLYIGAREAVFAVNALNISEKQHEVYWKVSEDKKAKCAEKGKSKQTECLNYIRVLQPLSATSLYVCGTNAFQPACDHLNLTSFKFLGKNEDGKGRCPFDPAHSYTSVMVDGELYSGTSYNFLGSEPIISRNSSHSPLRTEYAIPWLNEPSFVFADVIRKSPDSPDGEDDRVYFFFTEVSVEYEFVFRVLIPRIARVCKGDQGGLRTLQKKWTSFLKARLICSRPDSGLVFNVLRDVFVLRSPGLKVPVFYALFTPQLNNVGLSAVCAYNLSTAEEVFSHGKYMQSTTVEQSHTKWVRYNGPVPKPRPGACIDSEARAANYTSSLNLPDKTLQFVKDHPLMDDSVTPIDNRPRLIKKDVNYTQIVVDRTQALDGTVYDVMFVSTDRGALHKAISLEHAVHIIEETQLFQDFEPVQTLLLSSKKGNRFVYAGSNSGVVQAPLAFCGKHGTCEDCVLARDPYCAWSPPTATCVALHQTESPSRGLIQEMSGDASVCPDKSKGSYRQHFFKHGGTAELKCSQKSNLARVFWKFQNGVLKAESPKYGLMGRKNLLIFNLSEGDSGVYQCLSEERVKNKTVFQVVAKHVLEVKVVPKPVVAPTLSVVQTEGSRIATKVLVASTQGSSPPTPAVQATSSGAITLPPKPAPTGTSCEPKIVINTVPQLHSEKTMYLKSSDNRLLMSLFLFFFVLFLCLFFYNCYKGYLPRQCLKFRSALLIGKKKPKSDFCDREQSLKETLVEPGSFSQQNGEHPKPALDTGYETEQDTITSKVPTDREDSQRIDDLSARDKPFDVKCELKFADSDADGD
In words: FACS, CHO-K1 hSEMA4D cells; Ab 2.67 nM. On the procedure:
The medium was aspirated, the cells were washed once with PBS buffer (purchased from Invitrogen), and then treated with cell dissociation fluid (TrypLE™ Express Enzyme, purchased from Life technology), and the cells were collected. After the cells counted, the cells were washed once with PBS phosphate buffer, and diluted to 3×10⁶ cells per milliliter, and added to the 96-well FACS reaction plate as 100 μL per well. 2% (w/w) fetal calf serum was added to PBS phosphate buffer as FACS buffer, with which the cells were washed once by centrifugation at 2000 rpm 4° C. 100 μL of diluted and purified leading antibodies was added to each well and the plate was incubated for 1 hour on ice. […] Cells were washed 2 times by centrifugation with FACS buffer. The cells were suspended with 200 μL of FACS buffer, and FACS (FACS Verse, purchased from BD) was used to detect and analyze the results.
In general terms: Flow cytometry measures light scatter and fluorescence of single cells or particles in a stream.

Assay [2] concerns the target T2, monkey SEMA4D, full length, on CHO-K1 cells (CHO-K1 cSEMA4D) (monkey).
T2 construct: whole, on cells; also called monkey SEMA4D recombinant cells
Briefly: FACS, CHO-K1 cSEMA4D cells; Ab 0.000853 nM. As for the experimental part:
(§1) After the cells were counted, they were diluted with PBS to 2×10⁶ cells per milliliter. After washing, 100 μL of diluted and purified leading antibodies was added to each well and the plate was incubated for 1 hour on ice. […] Cells were washed 2 times by centrifugation with FACS buffer. The cells were suspended with 200 μL of FACS buffer, FACS (FACS Verse, purchased from BD) was used to detect and analyze the results.

Assay [3] has as its target T3, mouse SEMA4D, full length, on CHO-K1 cells (CHO-K1 mSEMA4D) (mouse, UniProt O09126 24-861).
T3 construct: whole, on cells; also called murine SEMA4D recombinant cells
T3 sequence (looked up): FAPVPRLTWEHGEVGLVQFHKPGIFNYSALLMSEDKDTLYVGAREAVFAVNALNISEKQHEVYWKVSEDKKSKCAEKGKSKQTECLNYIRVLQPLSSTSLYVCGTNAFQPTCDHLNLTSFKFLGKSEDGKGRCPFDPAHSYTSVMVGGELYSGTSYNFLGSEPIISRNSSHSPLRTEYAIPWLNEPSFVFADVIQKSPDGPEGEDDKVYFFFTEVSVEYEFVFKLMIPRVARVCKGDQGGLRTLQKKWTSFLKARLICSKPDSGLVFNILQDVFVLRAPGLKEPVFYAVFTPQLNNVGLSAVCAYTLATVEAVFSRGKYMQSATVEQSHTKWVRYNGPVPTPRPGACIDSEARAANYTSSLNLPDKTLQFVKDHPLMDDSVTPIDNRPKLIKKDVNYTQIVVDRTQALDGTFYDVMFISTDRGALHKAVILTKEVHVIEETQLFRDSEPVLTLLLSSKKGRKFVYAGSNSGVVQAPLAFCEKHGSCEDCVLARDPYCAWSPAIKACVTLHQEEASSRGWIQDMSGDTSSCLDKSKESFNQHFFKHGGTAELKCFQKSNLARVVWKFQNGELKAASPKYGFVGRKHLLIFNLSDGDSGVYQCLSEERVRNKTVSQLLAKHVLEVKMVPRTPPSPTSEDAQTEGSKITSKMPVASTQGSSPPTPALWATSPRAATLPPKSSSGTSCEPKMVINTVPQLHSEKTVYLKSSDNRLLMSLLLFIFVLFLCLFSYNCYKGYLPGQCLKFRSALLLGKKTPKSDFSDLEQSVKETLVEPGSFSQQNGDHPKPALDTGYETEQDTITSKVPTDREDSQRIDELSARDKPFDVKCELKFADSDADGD
Briefly: FACS, CHO-K1 mSEMA4D cells; Ab 0.00427 nM. As for the experimental part: as §1

In assay [4] the target is T3, mouse SEMA4D, full length, on CHO-K1 …. Briefly: FACS, CHO-K1 mSEMA4D cells; Ab 13.3 nM. As for the experimental part:
as §1

Assay [5] has as its target T2, monkey SEMA4D, full length, on CHO-K1 …. In words: FACS, CHO-K1 cSEMA4D cells; Ab 2.67 nM. As for the experimental part: as §1

B1: 37C4F7 (antibody, V domains shown)
VH: EFQLQQSGPEVVKPGASVKISCKASGYSFTDYNMNWMKQSKGKSLEWIGVINPNYGTTTYNQNFKGKATLTVDQSSSTAYMQLNSLTSEDSAVYYCARDMYYVYAYYTMDYWGQGTSVTVSS
VL: DVVMTQTPLSLPVSLGDQASISCRSSQSLVHSNGHTYLHWYLQRPGQSPTLLIYKVSNRFSGVPDRFSGSGSGTDFTLKISRVEAEDLGVYFCSQGTHVPWTFGGGTKLEIK
notes: Mouse monoclonal antibody purified from hybridoma supernatant on protein A
On to B1, for which the MFI stood at 2340 in assay [1]; 29 in assay [2]; 30.5 in assay [3]; 29.8 in assay [4]; 1940 in assay [5].

B2: 38H2E3 (antibody, V domains shown)
VH: EFQLQQSGPEVVKPGASVKISCKASGYSFTDYNMNWMKQSKGKSLEWIGVISPDYGTTTYNQNFKDKATLTVDQSSSTAYMQLNSLTSEDSAVYYCAKDMYYVYAYYTMDYWGHGTSVTVSS
VL: DVVMTQTPLSLPVSLGDQASISCRSSQSLVHSNGHTYLHWYLQRPGQSPTLLIYKVSNRFSGVPDRVSGSGSGTDFTLKISRVEAEDLGVYFCSQGTHVPRTFGGGTKLEIK
notes: as for B1
As for B2, the MFI was 2370 in assay [1]; 26.1 in assay [2]; 29.9 in assay [3]; 31 in assay [4]; 1750 in assay [5].

B3: 32C8F10 (antibody, V domains shown)
VH: EVQLQQSGAELVRPGASVKLSCTASGFNIKDEYIHWVKQRPEQGLEWIGWIDPANGHTEYASRFQAKATITADTSSNTAYLQLSSLTSEDTAVYYCTTGDYDGFAYWGQGTLVTVST
VL: QIVLTQSPAIMSASPGEKVTISCSARSSVSYMYWYQQKPGSSPKPWIYRTSNLASGVPARFSGSGSGTSYSLTISSMEAEDAATYYCQHYHTYPYTFGGGTKLEIK
notes: as for B1
Take B3: the MFI in assay [1] worked out at 6170; in assay [2], 49.7; in assay [3], 30.2; in assay [4], 30.6; in assay [5], 4920.

B4: 31G10C5 (antibody, V domains shown)
VH: EVQLQQSGAELVRPGASVKLSCTASGFNIKDDYIHWVKQRPEQGLEWIGWIDPANGHIEYASNFQAKATITADTSSNTAYLQLSSLTSEDTAVYYCTTGDYDGFTYWGQGTLVTVST
VL: QIVLTQSPAIMSASPGEKVTISCSARSSVSYMYWYQQKPGSSPKPWIYRTSNLASGVPARFSGSGSGTSYSLTISSMEAEDAATYYCQHYHTYPYTFGGGTKLEIK
notes: as for B1
For B4, the MFI amounted to 5860 in assay [1]; 61.5 in assay [2]; 29.8 in assay [3]; 30.9 in assay [4]; 4540 in assay [5].

B5: 31C11G2 (antibody, V domains shown)
VH: EVQLQQSGAELVRPGASVKLSCTASGFNIKDEYIHWVKQRPEQGLEWIGWIDPANGHTEYASRFQAKATITADTSSNTAYLQLSSLTSEDTAVYYCTTGDYDGFVYWGQGTLVTVST
VL: QIVLTQSPAIMSASPGEKVTIFCSARSSVSYMYWYQQKPGSSPKPWIYRTSNLASGVPARFSGSGSGTSYSLTISSMEAEDAATYYCQHYHTYPYTFGGGTKLEIK
notes: as for B1
Take B5: the MFI came out at 5970 in assay [1]; 81.4 in assay [2]; 31.4 in assay [3]; 31.3 in assay [4]; 4420 in assay [5].

B6: 37F11F9 (antibody, V domains shown)
VH: EVQLQQSGPVLVKPGASVKMSCKASGYTFTDYYMNWVKQSHGKSLEWIGLINPYSGGSTFNQKFKAKATLTVDKSSSSAYMDLNSLTSEDSAVYYCARVGDGYYGVTHGMDYWGQGTSVTVSS
VL: DIVMTPSQKFMSTTVGDRVSITCKASQNVGTAVAWYQQKPGQSPTILIYSASNRYTGVPDRFTGSGSGTDFTLTISNMKSEDLADYFCQQYYIYPFTFAAGTKLELK
notes: as for B1
Consider B6, for which the MFI in assay [1] worked out at 2880; in assay [2], 29.5; in assay [3], 30.1; in assay [4], 30.1; in assay [5], 2170.

B7: 42B7G2 (antibody, V domains shown)
VH: QVQLQQSGAELARPGASVKLSCKASGYTFTDYGISWVKQRTGQGLEWIGEIYLRNDNSYYNEKFKGKATLTADKSSNTAYMELRSLTSEDSAVYFCARWGDHGNNYEDAMDYWGQGTSVTVSS
VL: DIVLTQSPASLAMSLGKRATISCRASESVSIIGSNLIHWYQQKPGQPPKLLIYHASNLETGVPARFSGSGSRTDFTLTIDPVEEDDVAIYYCLQSRKVPYTFGGGTKLEIK
notes: as for B1
As for B7, the MFI is 3790 in assay [1]; 54.5 in assay [2]; 30.3 in assay [3]; 30.7 in assay [4]; 2640 in assay [5].
